This is an account of results in PMC7795666.

For assay [1], the target named is pyrene-labeled F-actin (chicken skeletal actin) (chicken) (UniProt P68139). Put plainly: stopped-flow transient kinetics (pyrene-actin fluorescence); no nucleotide; k'+A from linear fits of kobs; k'-A from mixing 1 µM pyrene-actomyosin complex with excess unlabeled F-actin; 1/K'A calculated as k'-A/k'+A; 20 °C, 20 mM MOPS, 100 mM KCl, 5 mM MgCl2, 1 mM DTT, pH 7.0.

Assay [2] deals with F-actin (chicken skeletal actin) (chicken) (UniProt P68139).
Assay [3] has as its target pyrene-labeled F-actin (chicken skeletal actin) (chicken) (UniProt P68139). Description: stopped-flow transient kinetics (pyrene-actin fluorescence); with ADP (ADP-myosin); k'+DA from linear dependence of kobs on pyrene-actin concentration; k'-DA from 1 µM pyrA.M pre-incubated with excess ADP mixed with excess unlabeled F-actin; 1/K'DA calculated as k'-DA/k'+DA; 20 °C, 20 mM MOPS, 100 mM KCl, 5 mM MgCl2, 1 mM DTT, pH 7.0.

Assay [4] shares this target. Description: stopped-flow (pyrene-actin fluorescence amplitude); multiple turnover: 2 µM myosin and 15 µM pyrene-actin mixed with 20 µM ATP; signal normalised to 100% of myosin bound to actin without nucleotide; fraction strongly bound from the change in total amplitude.
In assay [5] the target is F-actin (chicken skeletal actin) (chicken) (UniProt P68139). Put plainly: double-mixing stopped-flow, actin-activated Pi release (MDCC-PBP fluorescence); M.D.Pi state; multiple turnover: 2 µM myosin mixed with 200 µM ATP, aged 0.1 s, then mixed with increasing F-actin in excess ADP, 5 µM MDCC-PBP; hyperbolic fit kobs = k'+4[actin]/(1/K'DPA+[actin]); 20 °C, 20 mM MOPS, 100 mM KCl, 5 mM MgCl2, 1 mM DTT, pH 7.0.

Assay [6] addresses pyrene-labeled F-actin (chicken skeletal actin) (chicken) (UniProt P68139). Description: double-mixing stopped-flow (pyrene-actin fluorescence quench); weak-to-strong transition, single turnover: 2 µM myosin mixed with sub-equimolar ATP (1.8 µM), aged 3 s, then mixed with 20 µM pyrene-actin; double exponential fits; 20 °C.
For assay [7] the target is unchanged. Description: stopped-flow (pyrene-actin fluorescence amplitude); multiple turnover: 2 µM myosin and 15 µM pyrene-actin mixed with 20 µM ATP; signal normalised to 100% of myosin bound to actin without nucleotide; fraction strongly bound from the change in total amplitude. The source holds these as a separate data set.
The target is the same in assay [8]. Description: double-mixing stopped-flow (pyrene-actin fluorescence quench); weak-to-strong transition, single turnover: 2 µM myosin mixed with sub-equimolar ATP (1.8 µM), aged 3 s, then mixed with 20 µM pyrene-actin; double exponential fits; 20 °C. This is another data set of the same source.

Read-outs that look alike come from different tables or passages of the source.

Regarding “M765^AA-2R, D. discoideum myosin-2 motor domain (amino acids 1-765) with T647A, T648A fused to two alpha-actinin repeats (from UniProt P08799 1-765) (domain or fragment)”, in assay [1], the equilibrium dissociation constant (Kd) is 10 nM, the koff was 0.004 s⁻¹ and the association rate constant (kon) is 610000 M⁻¹ s⁻¹. In assay [2], the Kapp of the actin-activated steady-state ATPase (F-actin concentration at kcat/2), NADH-coupled assay is > 100 µM and the kcat/Kapp (catalytic efficiency) of the actin-activated steady-state ATPase is < 30000 M⁻¹ s⁻¹.
Turning to “M765^GGG-2R, D. discoideum myosin-2 motor domain (amino acids 1-765) with the two W-loop threonines replaced by three glycines, fused to two alpha-actinin repeats (from UniProt P08799 1-765) (domain or fragment)”, in assay [3], the Kd was 24 nM, the koff was 0.005 s⁻¹ and the kon is 180000 M⁻¹ s⁻¹. Moreover, in assay [1], the Kd was 11 nM, the koff is 0.005 s⁻¹ and the kon was 610000 M⁻¹ s⁻¹. Also, in assay [2], the Kapp of the actin-activated steady-state ATPase (F-actin concentration at kcat/2), NADH-coupled assay amounted to 54 µM and the kcat/Kapp (catalytic efficiency) of the actin-activated steady-state ATPase is 140000 M⁻¹ s⁻¹. Further, the percent strongly actin-bound with ATP (experimental duty ratio) in assay [4] worked out at 45%. Further, in assay [5], the Kd turned out to be 18000 nM and the k'+4K'DPA (second order rate constant of M.D.Pi binding to actin) came to 790000 M⁻¹ s⁻¹. Moreover, the k'weak-strong (observed rate of the weak-to-strong actin-binding transition) in assay [6] was found to be 2.3 s⁻¹. Moreover, the percent strongly actin-bound with ATP (experimental duty ratio) in assay [7] was found to be 35%. For the same substance, in assay [8], the k'weak-strong (observed rate of the weak-to-strong actin-binding transition) was determined as 2.6 s⁻¹.
“M765^wt-2R, D. discoideum myosin-2 motor domain (amino acids 1-765) fused to an artificial lever of two alpha-actinin repeats (from UniProt P08799 1-765) (domain or fragment)”: in assay [3], the Kd is 63 nM, the koff was 0.006 s⁻¹ and the kon was 120000 M⁻¹ s⁻¹. Also, in assay [1], the dissociation constant (Kd) was 5.7 nM, the koff is 0.003 s⁻¹ and the kon is 640000 M⁻¹ s⁻¹. Further, in assay [2], the Kapp of the actin-activated steady-state ATPase (F-actin concentration at kcat/2), NADH-coupled assay is > 100 µM and the kcat/Kapp (catalytic efficiency) of the actin-activated steady-state ATPase is < 30000 M⁻¹ s⁻¹. Moreover, in assay [5], the Kd was 94000 nM and the k'+4K'DPA (second order rate constant of M.D.Pi binding to actin) is 40000 M⁻¹ s⁻¹. The substance further displayed a k'weak-strong (observed rate of the weak-to-strong actin-binding transition) in assay [8] of 1 s⁻¹.
